{"source": "paper PMC5670123", "about": "“The structural basis of proton driven zinc transport by ZntB” (Nature Communications, 2017)", "proteins": {"B1": {"name": "ZntB from Escherichia coli, full-length (natural protein, UniProt P64423 1-327, looked up)", "chain": "MEAIKGSDVNVPDAVFAWMLDGRGGVKPLENTDVIDEAHPCWLHLNYVHHDSAQWLATTPLLPNNVRDALAGESTRPRVSRLGEGTLITLRCINGSTDERPDQLVAMRVYMDGRLIVSTRQRKVLALDDVVSDLEEGTGPTDCGGWLVDVCDALTDHSSEFIEQLHDKIIDLEDNLLDQQIPPRGFLALLRKQLIVMRRYMAPQRDVYARLASERLPWMSDDQRRRMQDIADRLGRGLDEIDACIARTGVMADEIAQVMQENLARRTYTMSLMAMVFLPSTFLTGLFGVNLGGIPGGGWQFGFSIFCILLVVLIGGVALWLHRSKWL", "notes": "Zinc transporter ZntB of Escherichia coli (CorA metal ion transporter family), full-length; Homopentamer in DDM micelles, apo (pre-treated with EDTA); TEV protease (ProTev Plus) is described only for the proteoliposome transport assay, not for the cryo-EM sample; also called EcZntB; source: membrane vesicles solubilized in DDM, purified (Ni2+-sepharose, EDTA treatment, Superdex 200 SEC)"}}, "target": "the molecule itself", "experiment": "cryo-EM structure; single-particle cryo-EM of DDM-solubilized, purified EcZntB pre-treated with EDTA (apo), ~10 mg/ml, 50 mM Tris/HCl pH 8.0, 250 mM NaCl, 0.03% DDM; overall resolution 4.2 Å", "data": [{"protein": "B1", "values": [{"measurement": "stoichiometry N", "value": 5}]}]}
